In patent US8926955B2, “Synthesis of polymer conjugates of indolocarbazole compounds” (priority 2008, dated 2015):

Tests used:
TrkA = TrkA (Homo sapiens, UniProt P04629); test: Off-chip Mobility Shift Assay, IC50 against TrkA kinase; format: biochemical; settings: ATP 75 μM, CSKtide 1000 nM
Method: The test compound was dissolved in dimethylsulfoxide (DMSO) and then the solution was further 25-fold diluted with assay buffer to make the final test compound solution. The conjugate was tested at the following concentrations: 30000 nM, 10000 nM, 3000 nM, 1000 nM, 300 nM, 100 nM, 30 nM, 10 nM, 3 nM and 1 nM.
The assay procedure is represented by an Off-chip Mobility Shift Assay (MSA) and is reported below:
IC50 value was calculated from concentration vs. % inhibition curves by fitting to a four parameter logistic curve.

Sprague Dawley rats = test: Acute intravenous toxicity study in rats; format: in vivo, rat
Method: The acute toxicity of the conjugate of Example 3 was investigated after intravenous administration (10 ml/kg in physiological saline) of a single dose to Sprague Dawley rats followed by a 14-day observation period.
A single group of 5 male and 5 female animals was dosed at 2000 mg/kg. Animals were dosed with the formulated test item at the selected level, just after its preparation, by injection into the tail vein using a hypodermic needle attached to a syringe of suitable capacity, at a dose volume of 10 ml/kg body weight. Throughout the study, all animals were checked twice daily.
Animals were examined for signs of reaction to treatment on dosing, approximately 30 min, 2 and 4 hours after dosing on day 1, then daily for a total of 14 days. Each animal was weighed on the day of allocation to study, on the day of dosing (day 1) and on days 2, 8 and 15. All animals were killed at the end of the observation period and subjected to necropsy examination.

[1] = Solubility in RPMI 1640 complete medium; format: physicochemical

TrkA, sequence (P04629 33-796): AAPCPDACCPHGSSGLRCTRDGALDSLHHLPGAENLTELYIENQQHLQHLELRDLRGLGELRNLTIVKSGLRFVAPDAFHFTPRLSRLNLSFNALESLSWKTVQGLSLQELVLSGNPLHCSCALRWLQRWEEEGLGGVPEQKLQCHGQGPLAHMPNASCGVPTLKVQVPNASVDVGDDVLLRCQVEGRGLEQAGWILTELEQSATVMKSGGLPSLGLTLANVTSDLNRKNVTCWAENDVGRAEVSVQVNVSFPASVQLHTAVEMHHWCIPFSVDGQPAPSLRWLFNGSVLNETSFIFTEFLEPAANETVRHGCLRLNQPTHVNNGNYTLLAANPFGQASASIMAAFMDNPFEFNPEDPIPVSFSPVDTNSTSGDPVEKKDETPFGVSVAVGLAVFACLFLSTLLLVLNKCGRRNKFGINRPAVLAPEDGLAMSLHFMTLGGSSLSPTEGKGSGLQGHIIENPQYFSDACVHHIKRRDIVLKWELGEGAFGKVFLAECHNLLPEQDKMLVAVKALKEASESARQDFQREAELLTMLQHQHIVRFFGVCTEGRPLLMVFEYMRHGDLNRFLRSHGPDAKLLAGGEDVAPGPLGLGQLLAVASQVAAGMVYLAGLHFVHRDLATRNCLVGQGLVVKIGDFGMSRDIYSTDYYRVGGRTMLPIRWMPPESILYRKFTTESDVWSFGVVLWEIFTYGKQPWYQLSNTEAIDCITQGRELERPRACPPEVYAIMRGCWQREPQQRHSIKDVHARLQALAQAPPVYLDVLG

For “oxazolidindionic conjugate of K252a with PEG (1892 MW) [test item]”, the IC50 (TrkA) was 202 nM, the “internal abnormalities at necropsy” value (Sprague Dawley rats; 2000 mg/kg i.v.) was “No internal abnormalities were detected” and the clinical signs (Sprague Dawley rats; 2000 mg/kg i.v., all animals on the day of dosing) was “reduced activity and piloerection”. The “changes in body weight” value (Sprague Dawley rats; 2000 mg/kg i.v., end of study) was “within the expected range”, the “abnormalities at the injection site” value (Sprague Dawley rats; 2000 mg/kg i.v., tail vein) was “No abnormalities were observed at the injection site” and the mortality (Sprague Dawley rats; 2000 mg/kg single intravenous dose, 14-day observation) was “No mortality occurred”. For the same substance, the local tolerance (Sprague Dawley rats; injected into the tail vein at 2000 mg/kg) was “locally tolerated”, the toxic effect (Sprague Dawley rats; single intravenous administration at 2000 mg/kg body weight) was “no toxic effect” and the solubility [1] was at least 50.0 mg/mL.
